B1: pamrevlumab (antibody, V domains shown)
VH: EGQLVQSGGGLVHPGGSLRLSCAGSGFTFSSYGMHWVRQAPGKGLEWVSGIGTGGGTYSTDSVKGRFTISRDNAKNSLYLQMNSLRAEDMAVYYCARGDYYGSGSFFDCWGQGTLVTVSS
VL: DIQMTQSPSSLSASVGDRVTITCRASQGISSWLAWYQQKPEKAPKSLIYAASSLQSGVPSRFSGSGSGTDFTLTISSLQPEDFATYYCQQYNSYPPTFGQGTKLEIK

Legend:
recombinant CCN2 = recombinant CCN2 (UniProt P29279); test: ELISA
[1] = target: Human CCN2 tagged with human Fc (human) (UniProt P29279); test: SPR
[2] = target: human CCN2 (R&D Systems) (human) (UniProt P29279); test: electrochemiluminescence assay
Sequence of human CCN2 (R&D Systems) (human) (P29279 27-349): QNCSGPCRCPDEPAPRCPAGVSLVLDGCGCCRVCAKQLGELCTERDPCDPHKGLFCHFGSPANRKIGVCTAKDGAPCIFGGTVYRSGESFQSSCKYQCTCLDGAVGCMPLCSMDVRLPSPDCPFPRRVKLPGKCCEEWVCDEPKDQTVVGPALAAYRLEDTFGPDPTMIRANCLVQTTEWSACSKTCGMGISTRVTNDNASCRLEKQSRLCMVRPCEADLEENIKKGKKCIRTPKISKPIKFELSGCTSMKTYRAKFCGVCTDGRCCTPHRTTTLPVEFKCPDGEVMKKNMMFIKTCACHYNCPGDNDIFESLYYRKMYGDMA

[3] = target: biotinylated human CCN2 (human) (UniProt P29279); test: competition electrochemiluminescence assay
Sequence of biotinylated human CCN2 (human) (P29279 27-349): as above

biotinylated human CCN2 = biotinylated human CCN2 (Homo sapiens, UniProt P29279, biotin (sites not given)); test: competition electrochemiluminescence assay
Sequence of biotinylated human CCN2 (P29279 27-349): as above

Sequence of Human CCN2 tagged with human Fc (human) (P29279 27-349): as above
Sequence of recombinant CCN2 (P29279 27-349): as above

Molecule	EC50 (recombinant CCN2)	Kd [1]	fold higher affinity than pamrevlumab [1]	fold slower dissociation than pamrevlumab [1]	relative potency [%], post-nebulization [2]	IC50 [3]	IC50 (biotinylated human CCN2)
PRS-220 (designed binder)	0.39 nM	0.06 nM	364 fold	169 fold	100%	0.35 nM	
B1							1.14 nM
